This experiment concerns the target cathepsin L. In words: enzyme inhibition kinetics (Morrison equation for tight-binding inhibition); active cathepsin L (6 nM) incubated with varying concentrations of Amblyostatin-1 in 50 mM sodium acetate pH 5.5 at 37°C for 10 min; substrate Z-Phe-Arg-AMC; fluorescence read at 30°C over 15 min; residual Vmax fitted.

A word on the Ki: it is a dissociation constant, usually derived from enzyme kinetics or from competition with a known ligand.

For “recombinant Amblyostatin-1 (natural protein)”, the Ki was determined as 0.697 nM.

The record behind these values is PMC12310653.
